These results are taken from patent US20220235136A1, “METHODS AND COMPOSITIONS FOR TREATING A DISEASE OR DISORDER” (YALE UNIVERSITY, priority 2019, published 2022).

Assay [1] has as its target CD141. Description: flow cytometry, HEK293T cells transfected with CD141 stained with IGFBP7-Ig; dashed = transfectant, solid = WT 293T; histograms overlie. On the technique in general: A flow cytometer gives signals particle by particle.
Assay [2] concerns the target CD93 on cells in Example 20 (transfected HEK293T cells, FIG. 28A; CHO cells stably expressing CD93, FIG. 28B); species not stated. Description: flow cytometry, CHO cells stably expressing CD93 stained with IGFBP7-Ig (dashed) or Control (solid) in the presence of MMRN2 (panel '+MMRN2', form of the MMRN2 not stated); bar chart of MFI beside it marked ns against 'None'.
Assay [3] deals with CD248 on transfected HEK293T cells. The assay can be described thus: flow cytometry, HEK293T cells transfected with CD248 stained with IGFBP7-Ig; dashed = transfectant, solid = WT 293T; histograms overlie; the text tells this pair as not binding.
CD248 on transfected HEK293T cells, sequence (Q9HCU0 18-757): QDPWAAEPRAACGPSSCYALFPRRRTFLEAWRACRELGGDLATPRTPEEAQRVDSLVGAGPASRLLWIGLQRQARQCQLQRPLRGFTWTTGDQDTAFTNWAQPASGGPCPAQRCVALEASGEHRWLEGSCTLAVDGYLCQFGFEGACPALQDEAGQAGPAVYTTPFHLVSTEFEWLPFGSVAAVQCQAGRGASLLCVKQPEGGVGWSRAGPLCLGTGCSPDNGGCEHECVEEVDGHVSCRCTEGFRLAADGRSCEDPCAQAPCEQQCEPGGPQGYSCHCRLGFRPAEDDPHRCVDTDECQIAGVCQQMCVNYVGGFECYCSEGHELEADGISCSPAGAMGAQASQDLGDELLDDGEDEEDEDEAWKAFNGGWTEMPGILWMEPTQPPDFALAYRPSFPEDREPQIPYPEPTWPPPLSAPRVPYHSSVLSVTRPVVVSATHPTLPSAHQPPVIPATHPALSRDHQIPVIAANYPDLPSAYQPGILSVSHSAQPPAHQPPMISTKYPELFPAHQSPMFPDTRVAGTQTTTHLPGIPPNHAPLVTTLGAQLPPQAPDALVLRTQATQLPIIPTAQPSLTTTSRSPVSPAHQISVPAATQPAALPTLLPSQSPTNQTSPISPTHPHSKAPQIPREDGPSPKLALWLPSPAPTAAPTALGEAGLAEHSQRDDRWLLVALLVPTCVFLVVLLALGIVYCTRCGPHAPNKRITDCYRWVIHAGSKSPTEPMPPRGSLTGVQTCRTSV
For assay [4], the target named is CD93 on cells in Example 20 (transfected HEK293T cells, FIG. 28A; CHO cells stably expressing CD93, FIG. 28B); species not stated. The assay can be described thus: flow cytometry, CHO cells stably expressing CD93 stained with IGFBP7-Ig (dashed) or Control (solid), no competitor.
CD93 on cells in Example 20 (transfected HEK293T cells, FIG. 28A; CHO cells stably expressing CD93, FIG. 28B); species not stated, sequence (Q9NPY3 22-652): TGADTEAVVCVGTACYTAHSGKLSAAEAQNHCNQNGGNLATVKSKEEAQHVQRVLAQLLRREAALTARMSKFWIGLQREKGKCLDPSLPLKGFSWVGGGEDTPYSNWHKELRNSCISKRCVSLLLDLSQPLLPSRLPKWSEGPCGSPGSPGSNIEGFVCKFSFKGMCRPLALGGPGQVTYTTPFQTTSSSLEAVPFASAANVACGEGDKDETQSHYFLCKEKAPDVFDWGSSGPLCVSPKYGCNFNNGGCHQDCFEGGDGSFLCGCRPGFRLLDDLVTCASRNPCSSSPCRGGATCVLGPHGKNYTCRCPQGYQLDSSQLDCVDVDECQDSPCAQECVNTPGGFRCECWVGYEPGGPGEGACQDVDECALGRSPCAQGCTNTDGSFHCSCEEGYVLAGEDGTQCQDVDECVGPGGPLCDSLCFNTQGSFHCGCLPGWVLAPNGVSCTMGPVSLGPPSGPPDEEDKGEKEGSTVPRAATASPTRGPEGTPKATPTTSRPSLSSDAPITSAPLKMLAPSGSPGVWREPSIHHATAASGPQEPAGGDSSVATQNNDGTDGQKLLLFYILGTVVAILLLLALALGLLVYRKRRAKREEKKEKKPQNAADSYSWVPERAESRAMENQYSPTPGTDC
For assay [5] the target is unchanged. The assay can be described thus: flow cytometry, HEK293T cells transfected with CD93 stained with IGFBP7-Ig; dashed = transfectant, solid = WT 293T.
For assay [6], the target named is CLEC14A on transfected HEK293T cells. The assay can be described thus: flow cytometry, HEK293T cells transfected with CLEC14A stained with IGFBP7-Ig; dashed = transfectant, solid = WT 293T; histograms nearly overlie; the text tells this pair as not binding.
CLEC14A on transfected HEK293T cells, sequence (Q86T13 22-490): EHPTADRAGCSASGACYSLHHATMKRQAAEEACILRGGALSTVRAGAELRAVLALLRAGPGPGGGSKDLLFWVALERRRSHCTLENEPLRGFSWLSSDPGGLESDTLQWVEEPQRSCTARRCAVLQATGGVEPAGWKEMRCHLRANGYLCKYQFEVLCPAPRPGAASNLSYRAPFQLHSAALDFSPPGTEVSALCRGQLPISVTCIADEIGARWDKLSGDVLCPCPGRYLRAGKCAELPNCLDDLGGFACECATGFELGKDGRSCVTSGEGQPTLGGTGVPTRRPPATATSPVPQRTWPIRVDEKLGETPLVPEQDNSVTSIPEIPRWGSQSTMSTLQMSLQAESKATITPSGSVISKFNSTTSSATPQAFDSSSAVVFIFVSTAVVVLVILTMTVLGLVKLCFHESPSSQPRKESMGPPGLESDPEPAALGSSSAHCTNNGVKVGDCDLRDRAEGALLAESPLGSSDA
The target of assay [7] is CD93 on cells in Example 20 (transfected HEK293T cells, FIG. 28A; CHO cells stably expressing CD93, FIG. 28B); species not stated. The assay can be described thus: flow cytometry, HEK293T cells transfected with CD93 stained with MMRN2-Ig; dashed = transfectant, solid = WT 293T.
For assay [8] the target is unchanged. The assay can be described thus: flow cytometry, CHO cells stably expressing CD93 stained with MMRN2-Ig (dashed) or Control (solid) in the presence of IGFBP7-His protein (panel '+IGFBP7'); bar chart of MFI beside it marked ns against 'None'.
Assay [9] shares this target. Description: flow cytometry, CHO cells stably expressing CD93 stained with MMRN2-Ig (dashed) or Control (solid), no competitor.
The target of assay [10] is CD248 on transfected HEK293T cells. Description: flow cytometry, HEK293T cells transfected with CD248 stained with MMRN2-Ig; dashed = transfectant, solid = WT 293T.
Assay [11] has as its target CD141. Description: flow cytometry, HEK293T cells transfected with CD141 stained with MMRN2-Ig; dashed = transfectant, solid = WT 293T; histograms nearly overlie.
Assay [12] addresses CLEC14A on transfected HEK293T cells. The assay can be described thus: flow cytometry, HEK293T cells transfected with CLEC14A stained with MMRN2-Ig; dashed = transfectant, solid = WT 293T.

IGFBP7-Ig (Example 20, FIG. 28A and 28E; species not stated) (Fc fusion), sequence (Q16270 27-282): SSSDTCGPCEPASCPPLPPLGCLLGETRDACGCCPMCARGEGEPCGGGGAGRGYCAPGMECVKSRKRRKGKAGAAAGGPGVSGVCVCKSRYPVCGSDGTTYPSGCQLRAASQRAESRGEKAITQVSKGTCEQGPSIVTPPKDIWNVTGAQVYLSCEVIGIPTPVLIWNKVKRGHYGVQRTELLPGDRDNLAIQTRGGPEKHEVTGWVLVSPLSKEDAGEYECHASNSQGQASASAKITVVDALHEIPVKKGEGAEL
CD141, sequence (P07204 19-575): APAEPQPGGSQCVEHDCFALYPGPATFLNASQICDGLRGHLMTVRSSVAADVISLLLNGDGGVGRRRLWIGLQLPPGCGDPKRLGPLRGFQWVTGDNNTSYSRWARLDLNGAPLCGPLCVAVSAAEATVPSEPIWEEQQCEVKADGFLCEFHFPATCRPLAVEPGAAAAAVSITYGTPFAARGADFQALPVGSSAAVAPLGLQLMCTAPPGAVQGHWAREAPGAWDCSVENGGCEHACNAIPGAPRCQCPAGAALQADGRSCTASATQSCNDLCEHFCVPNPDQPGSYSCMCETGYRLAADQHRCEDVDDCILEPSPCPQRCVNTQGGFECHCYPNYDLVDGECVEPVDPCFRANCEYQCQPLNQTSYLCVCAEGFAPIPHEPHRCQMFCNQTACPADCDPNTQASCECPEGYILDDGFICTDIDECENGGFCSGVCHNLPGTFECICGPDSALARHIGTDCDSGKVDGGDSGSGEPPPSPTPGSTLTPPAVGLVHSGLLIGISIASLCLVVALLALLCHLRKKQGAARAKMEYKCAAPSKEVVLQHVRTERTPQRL

Take “IGFBP7-Ig (Example 20, FIG. 28A and 28E; species not stated) (Fc fusion)”: the number printed over the positive gate of the histogram (percent of cells, unit not given) was determined as 2.42 in the assay with CD141 [1]; 67.2 in assay [2]; 3.07 in assay [3]; 67 in [4]; 28.2 in assay [5]; 5.45 in assay [6].
On to MMRN2-Ig (Fc fusion), for which the number printed over the positive gate of the histogram (percent of cells, unit not given) in assay [7] was 52.6; in assay [8], 93.8; in [9] it was 94.6; in [10], 13.3; with CD141 [11], 2.36; in [12], 25.6.
